Laboratory results reported in US8680241B2 (priority 2009, dated 2014).
Entries after “also recorded” stand apart in the source; their conditions may differ. Where two headings read alike, the source gives them in different places.

How the values were obtained:
[1] = system: Lewis rats with adjuvant-induced arthritis; settings: rat, in vivo
[2] = system: Balb/C mice with TNBS colitis; format: in vivo, mouse; settings: for TNBS-induced weight loss: Example 15, 8 mg/kg after sensitization and on day 1, day 3, PBS treated animals 15%, FIG. 24
Experimental: Balb/C mice were sensitized with 160 μL of the haptenizing agent TNBS (Sigma-Aldrich, St. Louis, Mo.) at a concentration of 2.5% in 50% ethanol by skin painting. A week later, 120 μl of 1% TNBS in 50% ethanol was administered intrarectally via a 3.5-French catheter. Mice were sacrificed 3 days after intrarectal TNBS administration. Animals were weighed at the time of sensitization, intrarectal administration and every day following such until sacrifice. Clinical assessment was carried out by evaluating weight loss and histopathology of the colon tissue post mortem.
Tissues were fixed in phosphate buffered saline containing 4% formalin and embedded in paraffin. Sections (5 μm) were stained with haematoxylin and eosin. The degree of inflammation was assessed by a blinded pathologist using the following scoring system from 0-4: 0, no signs of inflammation; 1, low level of leucocyte infiltration; 2, moderate level of leucocyte infiltration; 3, high level of leucocyte infiltration, high vascular density, thickening of bowel wall; 4, transmural infiltrations, loss of goblet cells, high vascular density, strong bowel wall thickening, edema.
Twenty Balb/C mice were sensitized via TNBS skin-painting (designated day −7), followed by intrarectal administration of TNBS a week later (designated day 0). The humanized VH2/VK3 antibody (200 μg) was administered at three time points (−6, −2, +1) via i.p. injection to treated animals which were compared with untreated control animals. All the animals were weighed at the time of sensitization, intrarectal administration and every day following such. The animals were sacrificed three days following intrarectal administration (designated +3) following significant weight loss (>5%) in the control group and the colon tissue was removed and sent for histopathological analysis.
Balb/C mice were sensitized via TNBS skin-painting (Day −7), followed by intrarectal administration of TNBS a week later (designated as day 0). The VH2/VK3 variant (8 mg/kg), Rituximab (8 mg/kg) or PBS, were administered following sensitization and on day 1 following intrarectal induction. The mice were weighed at the time of sensitization, intrarectal administration and every day following such. The animals were sacrificed 3 days following intrarectal administration (Day 3) following significant weight loss in the control groups.

[3] = system: Lewis rats with adjuvant-induced arthritis; format: in vivo, rat; settings: IP 1 mg/kg days 11 and 15, serum day 19, FIG. 19
Experimental: Evaluation of cytokine levels in cell culture or in the serum of animals was carried out utilizing specific kits from R&D SYSTEMS, Minneapolis Minn. USA (according to the manufacturer's instructions).
The inventors furthermore evaluated the in vivo effects of the humanized anti-peptide-6 antibody on the induction of IL-10 secretion in the serum of animals having established arthritis. Lewis rats were immunized with MT/CFA on day 0. Rats were treated on days 11 and 15 with humanized VH2/VK3 (IP 1 mg/kg), or with PBS for comparison. Severity of arthritis was evaluated by clinical scoring, and animals were sacrificed on day 19 and serum levels of various cytokines were measured by ELISA (R&D systems). Serum of healthy untreated animals served as a control.

[4] = system: human macrophages (CD14+ cells); format: cell-based; settings: FITC conjugated, 10 μg; double stained with anti-CD14; FIGS. 12, 16
[5] = system: PBMC collected from rheumatoid arthritis (RA) patients; format: cell-based, human; settings: 200 μg, 48 hours, two RA patients, vs without antibody; FIG. 21
Experimental: PBMC were collected from two RA patients and incubated for 48 hours with or without 200 μg of the humanized anti-peptide-6 antibody (VH2/VK3). Supernatants were then assayed for secreted IL-10 content.

Balb/C mice = settings: mouse, in vivo
[6] = biological target: T1, adenylyl cyclase-associated protein 1 (CAP1) (Homo sapiens, UniProt Q01518); experiment: Western blot on over-expressed His-tagged CAP1; format: binding; settings: control His CREB; FIG. 13
T1 construct: made in house; host or cells: E. coli BL21 (modified pET22b vector; cDNA from THP-1 cells)

[7] = 11-day period, FIG. 25
human PBMC = format: cell-based
[8] = system: DBA/1 mice with collagen-induced arthritis; format: in vivo, mouse; settings: single dose i.p. 200 μg upon clinical signs; vs TBS; FIG. 20
Experimental: Nine week old male DBA/1 mice (Harlan Laboratories, Israel) were injected s.c. at the base of the tail with 200 μg collagen type II emulsified in CFA (Difco). Three weeks later mice were boosted s.c. with the same concentration of collagen II. The severity of arthritis was assessed daily by measuring feet diameter of hind and fore paws by caliper by a blinded observer. As controls, the inventors measured 4 mice of about the same age that were not injected with collagen. The mean of the healthy mice served as a “cut-off” measurement. Starting from day 5 after the boost injection, every mouse with a score value above the average of the healthy mice (in one paw or more) was assigned to one of the treatment groups.
The inventors next examined the in vivo effects of the humanized VH2/VK3 anti-peptide-6 antibody in an additional experimental model of arthritis, the Collagen-Induced Arthritis (CIA) model in mice. Male DBA/1 mice were immunized on day 0 with collagen type II emulsified in CFA to induce arthritis, and a boost dose given on day 21.85% of the mice developed CIA within 2.5 weeks after the boost injection. Upon clinical signs of disease, the mice were treated with a single dose of either the humanized VH2/VK3 anti-peptide-6 antibody (i.p. 200 μg) or tris buffered saline (TBS).

T1 sequence (Q01518 whole entry): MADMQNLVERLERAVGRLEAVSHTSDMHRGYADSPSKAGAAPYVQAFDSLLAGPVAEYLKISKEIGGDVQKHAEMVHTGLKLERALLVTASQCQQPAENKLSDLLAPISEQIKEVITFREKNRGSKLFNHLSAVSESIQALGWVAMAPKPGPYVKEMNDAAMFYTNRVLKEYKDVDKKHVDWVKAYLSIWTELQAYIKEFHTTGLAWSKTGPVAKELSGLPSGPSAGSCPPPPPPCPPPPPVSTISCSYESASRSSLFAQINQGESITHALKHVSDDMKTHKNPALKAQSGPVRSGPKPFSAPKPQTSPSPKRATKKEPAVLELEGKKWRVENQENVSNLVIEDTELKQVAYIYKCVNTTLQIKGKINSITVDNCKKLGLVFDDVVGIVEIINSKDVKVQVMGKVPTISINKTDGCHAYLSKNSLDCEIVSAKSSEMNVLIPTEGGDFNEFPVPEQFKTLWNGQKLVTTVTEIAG

Molecule: Rituximab
- pathology findings of joints [1]: marked fibrosis and formation of reactive periosteal bone
- severity of AA (arthritis score) ([1]; ip, 5 mg/kg): no effect on AA
- TNBS-induced weight loss [2]: 14%

B1: VH2/VK3: humanized anti-peptide-6 IgG1; heavy chain variable region SEQ ID NO: 21, light chain variable region SEQ ID NO: 26 (antibody, V domains shown)
VH: QVTLKESGPALVKPTQTLTLTCSFSGFSLSTSNMGVGWIRQPAGKGLEWLLHILWNDSKYYNPALKSRLTISKDTYKNQVVLTMTNMDPVDTATYYCARMGGYYGNYGYYAMDYWGQGTLVTVSS
VL: QIVLTQSPATLSLSPGERATLSCTASSSVSSSYLHWYQQKPGKAPKLWIYSTSNLASGVPSRFSGSGSGTDYTLTISSLQPEDFATYYCHQYHRSPPTFGQGTKLEIK
modifications: IgG1 constant regions; VH2 amino acid sequence; VK3 amino acid sequence
- serum IL-1 levels ([3]; 1 rat per group): remain negligible in all groups
- serum IL-17 levels ([3]; 1 rat per group): remain negligible in all groups
- serum TNFα levels ([3]; 1 rat per group): remain negligible in all groups
- serum IL-4 levels [3]: remain negligible in all groups
- serum IFN-γ levels ([3]; vs PBS): reduction
- serum IL-6 levels ([3]; vs PBS): reduction
- serum IL-10 levels ([3]; vs PBS): clear induction of IL-10 levels
- binding to CD14 positive cells (FACS) [4]: binds to most of the CD14 positive cells
- severity of established AA (arthritis score) ([1]; ip, 2.5 mg/kg): effective in significantly suppressing the severity of established AA
- IL-10 secreted by RA patients' PBMC [5]: robust increase in the amount of IL-10 secreted
- pathological findings (heart, liver, lung, spleen, kidney) (Balb/C mice): no significant pathological findings
- recognition of His-tagged CAP1 (Western blot) [6]: recognized the His-tagged CAP1 protein specifically
- inflammatory response in the colon (microscopic disease score, histology) ([2]; Example 14, 200 μg i.p. at days -6, -2, +1, sacrifice day 3, p<0.05 vs control, FIG. 23): Minimal inflammatory response
- weight loss in TNBS colitis ([2]; Example 14, 200 μg i.p. at days -6, -2, +1, vs untreated control, FIG. 22): effective in suppressing the weight loss
- TNBS-induced weight loss [2]: 3.5%
- serum half-life ([7]; 500 μg i.p. on day 0): approximately 10 days
- serum half-life ([7]; 500 μg s.c. on day 0): approximately 10 days
- IL-10 induction in PBMC cultures (human PBMC): best IL-10 induction; also recorded: induced higher IL-10 expression than the other variants
- IL-10 secreted from human PBMC (human PBMC): significant increase in IL-10 secreted
- severity of established CIA (feet diameter) [8]: effective in significantly suppressing the severity of established CIA
